Publication PMC2897027 (Journal of molecular biology, 2010)

Key:
[1] = target: CTD MSK1 construct comprising residues 398-738 (human) (UniProt O75582); experiment: SEC
[2] = target: CTD MSK1 construct comprising residues 414-750 (human) (UniProt O75582); experiment: SEC
[3] = target: "full length" C-terminal kinase domain of MSK1 (residues 414-802) (human, UniProt O75582 414-802); experiment: SPR
Chain of "full length" C-terminal kinase domain of MSK1 (residues 414-802) (O75582 414-802): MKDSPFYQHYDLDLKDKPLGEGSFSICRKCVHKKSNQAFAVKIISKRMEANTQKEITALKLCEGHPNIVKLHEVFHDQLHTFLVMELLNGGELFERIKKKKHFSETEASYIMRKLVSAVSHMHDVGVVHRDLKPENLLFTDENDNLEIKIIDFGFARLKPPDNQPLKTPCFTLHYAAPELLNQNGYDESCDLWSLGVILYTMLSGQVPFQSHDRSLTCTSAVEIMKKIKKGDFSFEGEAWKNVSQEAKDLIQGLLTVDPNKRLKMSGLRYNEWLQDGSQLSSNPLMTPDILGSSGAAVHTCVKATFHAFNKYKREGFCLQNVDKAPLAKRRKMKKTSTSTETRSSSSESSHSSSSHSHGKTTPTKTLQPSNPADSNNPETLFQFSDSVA

## CTD MSK1 construct comprising residues 398-738 (from UniProt O75582 398-738) (domain or fragment)
[1]
  stoichiometry N: 2

## CTD MSK1 construct comprising residues 414-750 (from UniProt O75582 414-750) (domain or fragment)
[2]
  stoichiometry N: 2

B1: Full length human ERK1 (enzyme, UniProt P27361 1-379, looked up)
chain: MAAAAAQGGGGGEPRRTEGVGPGVPGEVEMVKGQPFDVGPRYTQLQYIGEGAYGMVSSAYDHVRKTRVAIKKISPFEHQTYCQRTLREIQILLRFRHENVIGIRDILRASTLEAMRDVYIVQDLMETDLYKLLKSQQLSNDHICYFLYQILRGLKYIHSANVLHRDLKPSNLLINTTCDLKICDFGLARIADPEHDHTGFLTEYVATRWYRAPEIMLNSKGYTKSIDIWSVGCILAEMLSNRPIFPGKHYLDQLNHILGILGSPSQEDLNCIINMKARNYLQSLPSKTKVAWAKLFPKSDSKALDLLDRMLTFNPNKRITVEEALAHPYLEQYYDPTDEPVAEEPFTFAMELDDLPKERLKELIFQETARFQPGVLEAP
[3]
  Kd: 74 ± 6 nM
